{"source": "paper PMC8749442", "about": "(iScience, 2021)", "key": {"[1]": {"target": "the molecule itself", "experiment": "cryo-EM structure"}, "[2]": {"target": "GroEL (wild-type bacterial chaperonin) (UniProt P0A6F5 1-548)", "sequence (P0A6F5 whole entry)": "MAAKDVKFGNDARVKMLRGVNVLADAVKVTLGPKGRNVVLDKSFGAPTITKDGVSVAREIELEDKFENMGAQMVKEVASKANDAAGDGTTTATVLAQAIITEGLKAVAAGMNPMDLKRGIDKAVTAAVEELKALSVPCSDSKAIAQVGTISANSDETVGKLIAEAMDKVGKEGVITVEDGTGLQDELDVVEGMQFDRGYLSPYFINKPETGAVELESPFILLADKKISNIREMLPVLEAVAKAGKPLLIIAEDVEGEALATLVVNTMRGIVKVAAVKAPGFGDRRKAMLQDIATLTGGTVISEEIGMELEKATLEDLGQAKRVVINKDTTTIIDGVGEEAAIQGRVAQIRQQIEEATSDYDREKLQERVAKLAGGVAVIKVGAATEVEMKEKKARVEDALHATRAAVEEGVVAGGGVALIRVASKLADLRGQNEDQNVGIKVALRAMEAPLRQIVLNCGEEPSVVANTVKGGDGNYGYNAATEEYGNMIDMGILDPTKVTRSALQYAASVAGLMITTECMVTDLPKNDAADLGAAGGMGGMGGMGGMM", "experiment": "cryo-EM structure"}}}
{"binder": "GroES (co-chaperone of GroEL) (natural protein) MNIRPLHDRVIVKRKEVETKSAGGIVLTGSAAAKSTRGEVLAVGNGRILENGEVKPLDVKVGDIVIFNDGYGVKSEKIDNEEVLIMSESDILAIVEA", "values": [{"measurement": "binding result", "setting": "[1]", "value": "binds"}, {"measurement": "binding result", "setting": "[2]", "value": "binds"}]}
